Data as given in patent US20240181006A1 (Merck KGaA, published 2024).

Columns and labels:
human MMP13 (activated) [1] = biological target: T1, human MMP13 (activated) (human, UniProt P45452 104-471); test: cell-based or functional assay
rat MMP13 (activated) [2] = biological target: T2, rat MMP13 (activated) (rat, UniProt P23097 99-466); test: cell-based or functional assay
dog MMP13 (activated) = dog MMP13 (activated) (dog, UniProt A0A8I3MWY2 129-496); test: cell-based or functional assay
bovine MMP13 (activated) = bovine MMP13 (activated) (bovine, UniProt O77656 104-471, limits assumed); test: cell-based or functional assay
[3] = biological target: cynomolgus MMP13 (activated) (cynomolgus, UniProt A0A2K5U988 104-471); test: cell-based or functional assay
human ADAMTS5 [4] = biological target: T3, human ADAMTS5 (human, UniProt Q9UNA0 262-622, limits assumed); test: cell-based or functional assay
T3 sequence: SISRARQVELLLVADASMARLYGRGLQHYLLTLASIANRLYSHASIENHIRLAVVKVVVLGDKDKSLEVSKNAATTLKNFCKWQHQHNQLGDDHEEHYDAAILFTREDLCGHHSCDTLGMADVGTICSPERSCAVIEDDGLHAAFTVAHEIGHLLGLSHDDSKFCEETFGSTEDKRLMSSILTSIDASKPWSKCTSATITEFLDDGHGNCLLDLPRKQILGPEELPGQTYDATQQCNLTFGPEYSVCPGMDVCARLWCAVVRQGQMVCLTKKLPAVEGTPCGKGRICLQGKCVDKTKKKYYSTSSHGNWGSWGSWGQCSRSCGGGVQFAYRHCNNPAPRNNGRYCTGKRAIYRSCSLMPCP

human ADAMTS5 [5] = biological target: T3, human ADAMTS5; test: SPR (Biacore T100), ADAMTS5 immobilized on CM5, 100 nM ISVD, Experiment 1
Method: (§1) Species cross-reactivity was initially evaluated via SPR-based off-rate analysis on a Biacore T100 instrument. Polypeptides were tested for binding to human, cynomolgus monkey (“cyno”), guinea pig, mouse, and bovine ADAMTS5. To this end, recombinant ADAMTS5 was immobilized onto a CM5 chip via amine coupling using EDC and NHS. […] Off-rate for each individual ADAMTS5 was determined by fitting a 1:1 interaction model (Langmuir model) onto the individual dissociation curves using the BIA Evaluation software. As a reference, off-rates on human ADAMTS5 were determined in each experiment.

cynomolgus ADAMTS5 [6] = biological target: T4, cynomolgus ADAMTS5 (cynomolgus, UniProt A0A2K5X879 260-620); test: as above
T4 construct: also called cyno ADAMTS5
T4 sequence: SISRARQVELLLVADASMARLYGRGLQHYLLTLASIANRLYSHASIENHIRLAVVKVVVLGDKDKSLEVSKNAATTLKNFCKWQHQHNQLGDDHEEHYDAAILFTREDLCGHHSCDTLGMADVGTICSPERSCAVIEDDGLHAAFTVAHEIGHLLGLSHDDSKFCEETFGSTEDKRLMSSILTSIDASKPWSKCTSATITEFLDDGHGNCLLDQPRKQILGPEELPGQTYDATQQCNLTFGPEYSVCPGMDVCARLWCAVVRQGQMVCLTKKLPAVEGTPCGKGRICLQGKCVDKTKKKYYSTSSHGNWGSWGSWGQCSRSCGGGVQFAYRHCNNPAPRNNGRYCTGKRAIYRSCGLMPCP
Method: as §1

guinea pig ADAMTS5 = guinea pig ADAMTS5 (guinea pig); test: as above
Method: as §1

human ADAMTS5 [7] = biological target: T3, human ADAMTS5; test: SPR (Biacore T100), ADAMTS5 immobilized on CM5, 100 nM ISVD, Experiment 2
Method: as §1

mouse ADAMTS5 = biological target: T5, mouse ADAMTS5 (mouse, UniProt Q9R001 262-622, limits assumed); test: as above
T5 sequence (looked up): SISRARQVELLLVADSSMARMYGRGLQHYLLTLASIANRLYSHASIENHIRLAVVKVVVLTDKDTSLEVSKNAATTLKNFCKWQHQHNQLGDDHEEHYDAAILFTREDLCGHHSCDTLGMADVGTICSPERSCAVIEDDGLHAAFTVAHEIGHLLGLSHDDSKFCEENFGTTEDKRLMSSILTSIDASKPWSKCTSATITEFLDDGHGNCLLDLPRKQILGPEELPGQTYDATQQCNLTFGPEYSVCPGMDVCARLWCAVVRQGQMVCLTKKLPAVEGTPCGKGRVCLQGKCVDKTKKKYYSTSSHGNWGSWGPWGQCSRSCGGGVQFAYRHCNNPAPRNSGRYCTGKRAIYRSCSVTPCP
Method: as §1

human ADAMTS5 [8] = biological target: T3, human ADAMTS5; test: SPR (Biacore T100), ADAMTS5 immobilized on CM5, 100 nM ISVD, Experiment 3
Method: as §1

cynomolgus ADAMTS5 [9] = biological target: T4, cynomolgus ADAMTS5; test: KinExA, in solution (N=1)
Method: (§2) All dilutions were prepared in sample buffer (PBS+0.1% BSA+0.02% NaN₃).
(§3) Percent free Nanobody construct was plotted as a function of ADAMTS5 concentration and fitted using the KinExA Pro Software v3.6.5 to determine the KD.

rat ADAMTS5 = biological target: T6, rat ADAMTS5 (rat, UniProt Q6TY19 262-928); test: KinExA, in solution (N=1)
T6 sequence: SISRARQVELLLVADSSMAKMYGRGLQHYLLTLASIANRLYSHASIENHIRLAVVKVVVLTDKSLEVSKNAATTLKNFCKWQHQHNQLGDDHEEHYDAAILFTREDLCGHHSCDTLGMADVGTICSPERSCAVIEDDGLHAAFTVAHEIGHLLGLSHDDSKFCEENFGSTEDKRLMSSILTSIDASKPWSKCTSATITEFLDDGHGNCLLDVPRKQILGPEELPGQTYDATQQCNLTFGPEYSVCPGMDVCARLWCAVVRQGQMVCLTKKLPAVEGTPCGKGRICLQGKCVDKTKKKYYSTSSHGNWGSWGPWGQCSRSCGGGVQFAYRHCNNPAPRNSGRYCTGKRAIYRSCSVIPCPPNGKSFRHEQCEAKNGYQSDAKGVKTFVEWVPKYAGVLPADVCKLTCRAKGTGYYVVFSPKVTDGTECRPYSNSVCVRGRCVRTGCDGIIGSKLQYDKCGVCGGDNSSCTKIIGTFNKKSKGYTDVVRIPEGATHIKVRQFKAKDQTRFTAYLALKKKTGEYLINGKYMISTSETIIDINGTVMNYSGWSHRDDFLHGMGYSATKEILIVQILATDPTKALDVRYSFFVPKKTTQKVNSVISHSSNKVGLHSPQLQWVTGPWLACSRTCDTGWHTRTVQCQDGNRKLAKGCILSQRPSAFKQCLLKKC
Method: as §2, §3

human ADAMTS5 [10] = biological target: T3, human ADAMTS5; test: cell-based or functional assay; remark: listed apart in the source
cynomolgus ADAMTS5 [11] = biological target: T4, cynomolgus ADAMTS5; test: cell-based or functional assay
rat MMP13 (activated) [12] = biological target: T2, rat MMP13 (activated); test: cell-based or functional assay; remark: listed apart in the source
[13] = biological target: T7, human MMP13 catalytic domain (human, UniProt P45452 104-274); test: cell-based or functional assay
[14] = biological target: T8, cynomolgus MMP13 catalytic domain (cynomolgus, UniProt A0A2K5U988 104-274); test: cell-based or functional assay
[15] = biological target: T9, rat MMP13 catalytic domain (rat, UniProt P23097 99-269); test: cell-based or functional assay
human ADAMTS5 [16] = biological target: T3, human ADAMTS5; test: KinExA, in solution, without Aggrecan G1-IGD-G2 (average, N=3)
Method: as §2, §3

rat MMP13 (activated) [17] = biological target: T2, rat MMP13 (activated); test: FRET-based kinetic enzyme assay, IC50 equals KI (average, N=2)
Method: (§4) All dilutions were made in assay buffer (50 mM Tris (pH 7.5), 100 mM NaCl, 10 mM CaCl₂)*2H₂O, 0.01% Tween20). […] This collagen-based substrate contains the generic MMP cleavage sequence Proline-Leucine-Glycine-Leucine (PLGL) and is labelled with a fluorochrome, Mca, and a quencher, Dpa. […] Starting within one minute after addition of the substrate, fluorescence was measured kinetically every minute for a total of 120 cycles (2 hours) using a Tecan F200 plate reader.
(§5) The obtained progress curves (fluorescent signal in function of reaction time) were analyzed using GraphPad Prism software, by fitting the linear portion of each progress curve with a straight line (Y=slope*X+Y-intercept).

human MMP13 (activated) [18] = biological target: T1, human MMP13 (activated); test: FRET-based kinetic enzyme assay, IC50 equals KI (average, N=3)
Method: as §4, §5

[19] = biological target: T8, cynomolgus MMP13 catalytic domain; test: as above
Method: as §4, §5

[20] = biological target: T9, rat MMP13 catalytic domain; test: as above
Method: as §4, §5

[21] = biological target: T7, human MMP13 catalytic domain; test: FRET-based kinetic enzyme assay, IC50 equals KI (average, N=6)
Method: as §4, §5

human ADAMTS5 [22] = biological target: T3, human ADAMTS5; test: KinExA, in solution, in presence of 2 nM Aggrecan G1-IGD-G2 (average, N=3)
Method: as §2, §3

[23] = biological target: T10, recombinant cynomolgus Aggrecan G1-IGD-G2 (cynomolgus); test: SPR (ProteOn XPR36), Aggrecan G1-IGD-G2 immobilized, 949 as analyte (average, N=2)
T10 construct: domain: G1-IGD-G2; also called Cy G1-IGD-G2
Method: (§6) Dissociation time was 10 min. After each sample injection the surfaces were regenerated with 10 mM glycine pH 1.5. […] This change in refractive index causes a change in the intensity and angle of reflected light which is quantitatively measured in real-time and plotted as response units (RU) versus time on a sensorgram. The kinetic constants were calculated from the obtained sensorgrams using ProteOn Manager 3.1.0 version 3.1.0.6 software and the ‘kinetic Langmuir kₐ/kd simultaneous’ model.

[24] = biological target: T11, recombinant rat Aggrecan G1-IGD-G2 (rat, UniProt P07897 20-684, limits assumed); test: SPR (ProteOn XPR36), Aggrecan G1-IGD-G2 immobilized, 949 as analyte (average, N=3)
T11 construct: domain: G1-IGD-G2; also called Rat G1-IGD-G2
Method: as §6

[25] = biological target: T12, recombinant human Aggrecan G1-IGD-G2 (human, UniProt P16112 20-676); test: SPR (ProteOn XPR36), Aggrecan G1-IGD-G2 immobilized, 949 as analyte (average, N=4)
T12 construct: also called Hu G1-IGD-G2
Method: as §6

B1: anti-MMP13 ISVD 62C02 (VHH)
VHH: EVQLVESGGGVVQPGGSLRLSCAASGFAFSAAYMSWVRQAPGKGLEWVSSISDDGSKTYYADSVKGRFTISRDNSKNTVYLQMNSLRPEDTALYYCNTGYGATTTRPGRYWGQGTLVTVSS
IC50, human collagenolytic assay (human MMP13 (activated) [1]): 1.4 nM
IC50, human fluorogenic collagen assay (human MMP13 (activated) [1]): 8.3 nM
IC50, human fluorogenic peptide assay (human MMP13 (activated) [1]): 1.4 nM
IC50, rat fluorogenic peptide assay (rat MMP13 (activated) [2]): 1.1 nM
IC50, dog fluorogenic peptide assay (dog MMP13 (activated)): 1 nM
IC50, bovine fluorogenic peptide assay (bovine MMP13 (activated)): 3.1 nM
IC50, cyno fluorogenic peptide assay [3]: 1.4 nM

B2: anti-ADAMTS5 ISVD 02F03 (VHH)
VHH: EVQLVESGGGVVQPGGSLRLSCAASGRTVSSYAMGWFRQAPGKEREFVAGISRSAERTYYVDSLKGRFTISRDNSKNTVYLQMNSLRPEDTALYYCAADLDPNRIFSREEYAYWGQGTLVTVSS
notes: Purified monovalent ISVD; also called 2F03 ATS5
IC50, Human AlphaLISA enzymatic assay (human ADAMTS5 [4]): 0.075 nM
IC50, Human FRET enzymatic assay (human ADAMTS5 [4]): 1.8 nM
koff (human ADAMTS5 [5]): 3.3e-05 s⁻¹
koff (cynomolgus ADAMTS5 [6]): 2.2e-05 s⁻¹
koff (guinea pig ADAMTS5): 3.4e-05 s⁻¹
koff (human ADAMTS5 [7]): 6.5e-05 s⁻¹
koff (mouse ADAMTS5): 0.00029 s⁻¹
koff (human ADAMTS5 [8]): 9.7e-05 s⁻¹

B3: polypeptide 949 (62C02-2F03-114F08-114F08, 35GS linkers) (other)
chain: EVQLVESGGGVVQPGGSLRLSCAASGFAFSAAYMSWVRQAPGKGLEWVSSISDDGSKTYYADSVKGRFTISRDNSKNTVYLQMNSLRPEDTALYYCNTGYGATTTRPGRYWGQGTLVTVSSGGGGSGGGGSGGGGSGGGGSGGGGSGGGGSGGGGSEVQLVESGGGVVQPGGSLRLSCAASGRTVSSYAMGWFRQAPGKEREFVAGISRSAERTYYVDSLKGRFTISRDNSKNTVYLQMNSLRPEDTALYYCAADLDPNRIFSREEYAYWGQGTLVTVSSGGGGSGGGGSGGGGSGGGGSGGGGSGGGGSGGGGSEVQLVESGGGVVQPGGSLRLSCAASGSTFIINVVRWYRRAPGKQRELVATISSGGNANYVDSVRGRFTISRDNSKNTVYLQMNSLRPEDTALYYCNVPTTHYGGVYYGPYWGQGTLVTVSSGGGGSGGGGSGGGGSGGGGSGGGGSGGGGSGGGGSEVQLVESGGGVVQPGGSLRLSCAASGSTFIINVVRWYRRAPGKQRELVATISSGGNANYVDSVRGRFTISRDNSKNTVYLQMNSLRPEDTALYYCNVPTTHYGGVYYGPYWGQGTLVTVSSA
notes: Tetravalent, trispecific VHH construct: anti-MMP13, anti-ADAMTS5 and two anti-Aggrecan units; also called C010100949; ALX-1011
Kd (cynomolgus ADAMTS5 [9]): 0.0244 nM
Kd (rat ADAMTS5): 0.0252 nM
IC50 (read off the curve); FRET-based enzymatic activity assay, Vi/V0 (human ADAMTS5 [10]): ~4 nM
IC50 (read off the curve); FRET-based enzymatic activity assay, Vi/V0 (cynomolgus ADAMTS5 [11]): 3 to 4 nM
IC50 (read off the curve); FRET-based enzymatic activity assay, Vi/V0 [right panel] (rat MMP13 (activated) [12]): ~10 nM
IC50 (read off the curve); FRET-based enzymatic activity assay, Vi/V0 [left panel] [13]: ~30 nM
IC50 (read off the curve); FRET-based enzymatic activity assay, Vi/V0 [left panel] [14]: ~20 nM
IC50 (read off the curve); FRET-based enzymatic activity assay, Vi/V0 [left panel] [15]: ~30 nM
Kd (human ADAMTS5 [16]): 0.0327 nM
Ki (rat MMP13 (activated) [17]): 13 nM
Ki (human MMP13 (activated) [18]): 2.92 nM
Ki [19]: 20.2 nM
Ki [20]: 26.6 nM
Ki [21]: 27.9 nM
Kd (human ADAMTS5 [22]): 0.0266 nM
Kd [23]: 0.016 nM
Kd [24]: 0.0166 nM
Kd [25]: 0.014 nM
